# Reference: patent US20260167712A1, “INHIBITORY ANTIBODIES AGAINST GLUT1” (ICOSAGEN CELL FACTORY OÜ, priority 2022, published 2026)
# “Also recorded” adds a separate entry of the source.
# T1: SLC2A1 pseudotyped VLPs (Homo sapiens, UniProt P11166)
# T1 sequence (P11166 1-492): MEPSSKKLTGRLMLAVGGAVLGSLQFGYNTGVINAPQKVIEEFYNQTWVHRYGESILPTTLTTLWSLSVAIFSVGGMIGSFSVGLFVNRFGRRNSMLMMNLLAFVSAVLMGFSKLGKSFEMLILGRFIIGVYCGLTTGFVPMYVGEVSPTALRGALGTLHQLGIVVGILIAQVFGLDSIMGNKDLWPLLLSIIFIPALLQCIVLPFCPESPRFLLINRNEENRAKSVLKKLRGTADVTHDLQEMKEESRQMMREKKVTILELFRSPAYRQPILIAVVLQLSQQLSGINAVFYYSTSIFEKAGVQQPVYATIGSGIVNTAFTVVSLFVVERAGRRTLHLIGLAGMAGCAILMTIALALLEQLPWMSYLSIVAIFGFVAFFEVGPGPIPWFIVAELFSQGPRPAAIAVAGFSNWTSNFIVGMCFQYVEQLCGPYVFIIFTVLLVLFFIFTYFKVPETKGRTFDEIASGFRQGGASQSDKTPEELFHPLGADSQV
# T2: HEK-293-ALL cells transfected with human SLC2A1 (Homo sapiens, UniProt P11166)
# T2 construct: expressed in transfected cells; host or cells: HEK-293-ALL
# T2 sequence (P11166 1-492): T1 sequence (P11166 1-492)
# T3: SLC2A1 pseudotyped VLPs (UniProt P11166 1-492)
# T3 chain: T1 sequence (P11166 1-492)
# B1: 6F12 #33 (antibody, V domains shown)
# VH: AVTLDESGGGLQTPGGALSLVCKASGFTFSDHAIFWVRQAPDKGLEFVAAISSGTGSWTAYATVVKGRATISRDNGQSTVRLQLNNLRAADTATYYCAKGAGSACCYAGSIDAWGHGTEVIVSS
# VL: ALTQPSSVSANPGETVKITCSGGSSSSYYGWYQQKSPGSAPVTLIYYNDKRPSDIPSRFSGSKSGSTATLTITGVQVEDEAVYYCGTGDGSFAIFGAGTTLTVL
# B2: 2E5 #22 (antibody, V domains shown)
# VH: AVTLDESGGGLQTPGGALSLVCKASGFTFSTKGMGWVRQTPGKGLEWVAGISSMRRYTYYAPAVKGRATISRDNGQSTVRLQLSSLRAEDSGTYYCARDATYCSWTTSTCGWSGGTIDAWGHGTEVIVSS
# VL: ALTQPSSVSANLGGTVKITCSGGSGNYGWYQQKSPGSVPVTVIYSNDKRPSDIPSRFSGSGSGSTATLTITGVQVEDEAVYFCGSRDSSYVGLFGAGTTLTVL
# Assays:
# SLC2A1 pseudotyped VLPs [1] = target: T1, SLC2A1 pseudotyped VLPs; assay: ELISA-based SLC2A1 VLP binding assay; conditions: 5 μg/mL VLP coating, FIG. 1
# Experimental: An ELISA-based VLP binding assay was carried out to compare the EC50 values of antibody clones (FIG. 1). Similarly, ELISA based VLP binding assay was performed to compare the binding of the antibodies to different glucose transporters (FIG. 3). MaxiSorp™ high-capacity binding ELISA plate (Thermo Fisher Scientific, US) were coated with 5 μg/mL SLC2A1, SLC2A2, SLC2A3, SLC2A4 pseudotyped VLPs or MOCK VLPs in PBS overnight. The plate was washed and blocked for 1 h with 0.05% Tween 20, 2% BSA in PBS. Serial dilutions of antibodies were incubated on a washed plate for 1 hour, followed by a 1-hour incubation with goat anti-human IgG horse radish peroxidase (HRP) conjugated (Invitrogen) antibody. TMB (3,3′,5,5′-Tetramethylbenzidine) Solution VII (Biopanda Diagnostics) was used as a substrate for HRP and 0.5 M H2SO4 was used as stop solution. After every step, the wells were washed with 0.05% Tween 20, 0.1% Proclin 300 PBS solution. Absorption at 450 nm was measured with Thermo Scientific™ Multiskan™ FC Microplate Photometer. Exemplary wise used antibodies 1G2 #9, 2A2 #12, 2E5 #22, 5G5 #30, 6F12 #33, 7C3 #39 all bound SLC2A1 VLPs with low nanomolar EC50 values (FIG. 1).
# [2] = target: T2, HEK-293-ALL cells transfected with human SLC2A1; assay: 2-Deoxyglucose uptake assay (Glucose Uptake-Glo); type: cell-based; conditions: 2-hour incubation, 0.35 nM to 6.89 μM, 1 mM 2DG for 20 min, FIG. 4
# Experimental: To evaluate if the described anti-SLC2A1 antibodies inhibit glucose uptake, a commercial Glucose Uptake-Glo Assay kit (Promega) was utilized according to manufacturer's instructions. In short, HEK-293-ALL cells were transfected with human SLC2A1 expression plasmid and were incubated at 37° C. overnight in the presence of 5% CO2. Cells were washed with 0.5% BSA PBS twice and 7000 cells were plated per well into white clear bottom 96-well plates in 0.5% BSA PBS in the presence of 0.35 nM to 6.89 μM anti-SLC2A1 antibodies or glucose uptake inhibitor BAY-876 (CaymanChem). Cells were incubated for 2 hours at room temperature. Glucose uptake was initiated by the addition of 1 mM 2-deoxyglucose (2DG) and was allowed to proceed for 20 min at 37° C. in the presence of 5% CO2. After adding STOP and neutralization reagents included in the kit, luminescence was measured using GloMax Explorer microplate reader (Promega). Nonspecific luminescence was measured in lysates from cells without (2DG) being added. Data was normalized to nonspecific luminescence and to the average value of luminescence in the presence of no inhibitors.
# [3] = system: PANC1 pancreatic cancer cell line; assay: Cell proliferation inhibition assay (Incucyte), PANC1; type: cell-based; conditions: co-treatment with IACS-010759, compared to single agents, FIG. 11B
# Experimental: (§1) Incucyte S3 Live cell analysis instrument and Cell-by-Cell analysis software module (Sartorius) were used to evaluate the effect of anti-SLC2A1 antibodies on cancer cell proliferation label-free (FIGS. 5-11). MCF7, PC3 or PANC1 or MIAPACA2 cells were plated on flat bottom tissue culture 96-well plate in […] medium (Ximbio) supplemented with 2.5% FBS. Cells were incubated overnight and 0.02 nM to 13 μM anti-SLC2A1 antibodies, anti-HEL isotype control, PBS or BAY-876 were added to the cells alone or in combination with metformin (CaymanChem), phenformin (Sigma Aldrich) or IACS-010759 (CaymanChem). Cell confluence or object count was measured for 24 to 96 hours with Incucyte S3 and normalized to timepoint 0 h or 4h. anti-SLC2A1 antibodies inhibit cancer cell proliferation alone and especially in combination with complex-I inhibitors metformin, phenformin and IACS-010759. Exemplary antibodies 1G2 #9, 2A2 #12, 2E5 #22, 5G5 #30, 6F12 #33, 7C3 #39 and R14 #54 were used in proliferation assays.
# [4] = system: MIAPACA2 pancreatic cancer cell line; assay: Cell proliferation inhibition assay (Incucyte), MIAPACA2; type: cell-based; conditions: co-treatment with IACS-010759, compared to single agents, FIG. 11C
# Experimental: as §1
# [5] = system: MiaPaca2 xenograft tumors; assay: Antitumor efficacy against MiaPaca2 xenograft tumors; type: in vivo, mice; conditions: 6F12 #33 200 ug per mouse IP every 72 h plus daily Phenformin 20 mg/kg IP, versus phenformin alone, FIG. 12A
# Excerpt: (§2) Hsd:Athymic Nude-Foxn1^nu mice (10 per group) were inoculated with 5e6 MiaPaca2 cells/mouse subcutaneously.
# [6] = Body weight in MiaPaca2 xenograft study; type: in vivo, mice; conditions: during treatments, FIG. 12B
# Excerpt: as §2
# SLC2A1 pseudotyped VLPs [7] = target: T3, SLC2A1 pseudotyped VLPs; assay: ELISA
# [8] = system: PC3 prostate cancer cell line; assay: Cell proliferation inhibition assay (Incucyte), PC3; type: cell-based; conditions: co-treatment with IACS-010759, compared to single agents, FIG. 11A
# Experimental: as §1
Molecule,EC50 of binding to SLC2A1 VLPs (SLC2A1 pseudotyped VLPs [1]),glucose (2-deoxyglucose) uptake [2],PANC1 cell growth in combination with IACS-010759 [3],MIAPACA2 cell growth in combination with IACS-010759 [4],"tumor growth, cotreatment with phenformin [5]",body weight [6],EC50 (SLC2A1 pseudotyped VLPs [7]) [nM],PC3 cell growth in combination with IACS-010759 [8]
B1,low nanomolar,strong concentration dependent decrease,dramatic growth reduction,dramatic growth reduction,statistically significant tumor growth inhibition,No changes; also recorded: remained unchanged,0.6,–
B2,low nanomolar,strong concentration dependent decrease,–,–,–,–,0.5,strong synergistic growth inhibition
